This is an account of results in patent publication US8603949B2, “Libraries of optimized cytochrome P450 enzymes and the optimized P450 enzymes” (California Institute of Technology, priority 2003, dated 2013).

Data set [1] can be described thus: Peroxygenase activity, hydroxylation of 12-pNCA. Format: biochemical. To be noted: 250 μM 12-pNCA. On the procedure:
(§1) The chimeras were assayed for hydroxylation of p-nitrophenoxydodecanoic acid (12-pNCA), a fatty acid analog that is hydroxylated by CYP102A1 and CYP102A2 to yield p-nitrophenolate (Schwaneberg et al., Anal Biochem 269,359-366 (1999)). […] When hydroxylation rates for the parent CYP102 enzymes were monitored using the maximum soluble concentrations of these substrates, activity could only be detected on 2-phenoxy-ethanol.
This Example provides one method by which peroxygenase activity of a P450 enzyme may be characterized. First order rates for p-nitrophenolate accumulation were determined using 1 μM enzyme, 20 mM H2O2, 250 μM 12-pNCA and 0.5% dimethyl sulfoxide (DMSO) in 100 mM Tris-HCl (pH 8.2) at room temperature. Enzyme, substrate, buffer and DMSO were combined in a cuvette and zeroed at 410 nm. Reaction mixtures were incubated for 4 minutes and initiated by the addition of H2O2 to a final concentration of 20 mM. Initial rates were determined by monitoring the accumulation of p-nitrophenolate at 410 nm, and data from the first six seconds were used to determine initial rates. […] The extinction coefficient of p-nitrophenolate is 13,200 M^−1cm^−1 (Schwaneberg et al., Anal Biochem 269:359-366 (1999)).

Data set [2] in a line: Peroxidase activity with ABTS and H2O2. It counts as biochemical. The conditions noted are these: for Peroxidase activity: 10 mM ABTS, 20 mM H2O2, pH 5.0, activities <0.2 not detectable (N.D.). An outline of the steps:
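Initial peroxidase rates from ABTS radical cation accumulation at 414 nm: 1 μM enzyme, 10 mM ABTS, 200 mM phosphate pH 5.0, room temperature, started with H2O2 to 20 mM. Monitored 5 min; rate from steepest part of time course using ε 36,000 […].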

Data set [3] can be described thus: Peroxygenase substrate activity profile. It counts as biochemical. The conditions noted are these: 20 mM H2O2. An outline of the steps: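 Peroxygenase rates were measured with H2O2 (20 mM) at room temperature and pH 8.2. For 12-pNCA (250 μM), 1 μM enzyme in Tris buffer was used, with initial p-nitrophenolate formation read at 410 nm over the first 6 s. For 2-phenoxy-ethanol (100 mM) and allyloxy-benzene (50 mM), 2 μM enzyme in EPPS buffer was used, reactions were quenched, phenol was detected by 4-AAP at 500 nm, and rates are in nmol product/nmol P450/min.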

Data set [4] can be described thus: Thermostability (loss of Soret band at increasing temperatures). The conditions noted are these: cell extracts heated 10 minutes. It counts as physicochemical. An outline of the steps: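 Cell extracts heated 10 minutes at a range of temperatures, cooled to 4° C and centrifuged to remove precipitate. Remaining P450 quantified by carbon monoxide reduced difference spectroscopy, following loss of the CO/Soret peak with temperature.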

Data set [5] can be described thus: Library plate screen on five test substrates (4-AAP, 12-pNCA). It counts as biochemical. The conditions noted are these: seven-crossover library, cell lysate, 20 mM H2O2. The procedure: These library plates were replicated and grown in 96 deep-well plates in 900 μL of LB media with 100 μg/ml ampicillin overnight at 30° C. and 250 rpm. 150 μL of this was then transferred to 850 μL of induction media (TB-media with final concentrations of 100 μg/ml ampicillin, 25 μg/ml thiamine, 0.5 mM δ-aminolevulinic acid and 0.6 mM IPTG). These were grown for 20-24 hours at 25° C. and 190 rpm, harvested by centrifugation at 5000×g for 8 minutes and frozen at -20° C. for at least 24 hours. Cells were resuspended using a pipetting robot (Multimek 96, Beckman) and lysed in 400 μL of Epps or Tris buffer (100 mM, pH 8.2) containing 0.8 mg/ml lysozyme and 2 units/mL DNaseI for 1 hour at 37° C. Plates were then spun for 8 minutes at 5000×g and 4° C. to pellet cell debris. 80 μL of lysate was transferred into 4 separate 96 well plates for each library plate. […] On one plate, high -throughput carbon monoxide spectroscopy was done in order to assess relative amounts of P450 (Otey, C. R. High-throughput carbon monoxide binding assay for cytochromes P450. In Directed Enzyme Evolution: Screening and Selection Methods, F. H. Arnold and […]. 137-139 (2003)) with 0.1 M sodium hydrosulfite being used in place of 0.4 M. The other three plates were used to assay activity on different substrates. Examples of assays that have been or could be used include the 4-AAP (Otey, C. R., and Joern, J. M. High-throughput screen for aromatic hydroxylation. In Directed Enzyme Evolution: Screening and Selection Methods, F. H. Arnold and […]. 141-148 (2003)), 12-pNCA (Schwaneberg et al., Anal. Biochem., 269:359-366 (1999), NBP assay ([…], et al., J Biomol Screen, 9:141-146 (2004)), 7-ethoxyresorufin (Sieber et al., Nat Biotechnol., 19:456-460 (2001)), vivid substrate assays (Marks et al., Assay Drug Dev Technol 1, 73-81 (2002); Marks et al., AAPS PharmSci 5, E18 (2003)), and purpald assays (Peters et al., J Am Chem Soc 125:13442-13450 (2003)). Since the heme domains were being used, the hydrogen peroxide was used to drive the reactions via the peroxide shunt (Cirino, P. C., and Arnold, F. H., Advanced Synthesis & Catalysis 344, 932-937 (2002)). The 4-AAP assay detects phenol-like compounds and consists of the addition of 40 μL of a 3.5× substrate solution (containing substrate concentrations dependent for each substrate) to 80 μL of lysate. […] Then a 7×(140 mM) H2O2 hydrogen peroxide solution was added resulting in a final concentration of 20 mM hydrogen peroxide. The reaction was mixed and left at room temperature without shaking for two hours and then quenched with 140 μL of 0.1 m NaOH and 4 M Urea. 38 μL of 0.6% 4-aminoantipyrine was added followed by blanking of the 96-well plate reader at 500 nm. 38 μL of 0.6% potassium persulfate was added and after 20 minutes the A500 was read. […]

A short description of data set [6]: Peroxygenase activity on allyloxy-benzene (4-AAP assay). To be noted: 50 mM substrate. Format: biochemical. On the procedure:
as §1
Rates on 2-phenoxy-ethanol and allyloxy-benzene were determined using 2 μM enzyme, 20 mM H2O2, 1% DMSO, and 1% acetone in 100 mM N-[2-hydroxyethyl]piperazine-N′-[3-propanesulfonic acid] (Epps) (pH 8.2) at room temperature. Substrate concentrations for 2-phenoxy-ethanol (100 mM) and allyloxy benzene (50 mM) maintained saturation. Reactions were initiated by the addition of H2O2 and quenched at appropriate times using an equal volume of a solution containing 4M urea and 100 mM NaOH. 120 μl of 0.6% 4-AAP was added, followed by mixing and addition of 120 μl of 0.6% potassium persulfate. Color was allowed to develop for 20 minutes before absorbance was read at 500 nm. Rates were determined from the linear region of the time course. The major products were determined by GC/MS to be the hemiacetal, which decomposes to phenol. The extinction coefficient for the 4-AAP/phenol complex was determined to be 4,800 M^−1cm^−1. The results can be seen in FIG. 4.

“Also recorded” adds a separate entry of the source.

B1: Chimera 169-197: CYP102A1 heme domain with residues 169-197 from CYP102A2 (protein)
chain: TIKEMPQPKTFGELKNLPLLNTDKPVQALMKIADELGEIFKFEAPGRVTRYLSSQRLIKEACDESRFDKNLSQALKFVRDFAGDGLATSWTHEKNWKKAHNILLPSFSQQAMKGYHAMMVDIAVQLVQKWERLNADEHIEVPEDMTRLTLDTIGLCGFNYRFNSFYRDTPHPFINSMVRALDEAMHQMQRLDVQDKLYDENKRQFQEDIKVMNDLVDKIIADRKASGEQSDDLLTHMLNGKDPETGEPLDDENIRYQIITFLIAGHETTSGLLSFALYFLVKNPHVLQKAAEEAARVLVDPVPSYKQVKQLKYVGMVLNEALRLWPTAPAFSLYAKEDTVLGGEYPLEKGDELMVLIPQLHRDKTIWGDDVEEFRPERFENPSAIPQHAFKPFGNGQRACIGQQFALHEATLVLGMMLKHFDFEDHTNYELDIKETLTLKPEGFVVKAKSKKIPLGGIPSPST
modifications: Chimeric Cytochrome P450 heme group sequence from Bacillus megaterium and Bacillus subtilis
notes: CYP102A1 heme domain with residues 169-197 from CYP102A2
On to B1, for which the “peroxygenase activity on 12-pNCA” value in data set [1] is recorded as “most active; also recorded: significant increase”. Also, in data set [2], the Peroxidase activity is 100.3 nmol product/nmol P450/min. In data set [2] (ABTS), the “fold increase of peroxidase activity over the most active parent” value was “approximately 40 fold”; the “peroxidase activity relative to parents” value was “highest peroxidase and peroxygenase rates; also recorded: significantly higher peroxidase activities”. Besides, the “substrate activity profile relative to parents” value in data set [3] is listed as “parent-like profiles”. The Tm in data set [4] was found to be 52 °C.

B2: Chimera F37202: chimera of the CYP102A1/A2/A3 seven-crossover library (protein)
chain: KQASAIPQPKTYGPLKNLPHLEKEQLSQSLWRIADELGPIFRFDFPGVSSVFVSGHNLVAEVCDEERFDKSIEGALEKVRAFSGDGLATSWTHEPNWRKAHNILMPTFSQRAMKDYHEKMVDIATQLIQKWSRLNPNEEIDVADDMTRLTLDTIGLCGFNYRFNSFYRDQPHPFITSMVRALDEAMNKLQRANPDDPAYDENKRQFQEDIKVMNDLVDRMIAERKANPDENIKDLLSLMLYAKDPVTGETLDDENIRYQIITFLIAGHETTSGLLSFAIYCLLTHPEKLKKAQEEADRVLTDDTPEYKQIQQLKYIRMVLNETLRLYPTAPAFSLYAKEDTVLGGEYPISKGQPVTVLIPKLHRDQNAWGPDAEDFRPERFEDPSSIPHHAYKPFGNGQRACIGMQFALQEATMVLGLVLKHFELINHTGYELKIKEALTIKPDDFKITVKPRKTAAINVQRKEQA
modifications: Chimeric Cytochrome P450 heme group polypeptide sequence from CYP102A1 (Bacillus megaterium); CYP102A2 (Bacillus subtilis) and CYP102A3 (Bacillus subtilis)
notes: chimera of the CYP102A1/A2/A3 seven-crossover library
For the molecule B2, in data set [5], the “activity on test substrates incl. novel substrates (diphenyl ether, allyloxy-benzene)” value was “activity that is novel”.

B3: Chimera 165-256: CYP102A1 heme domain with residues 165-256 from CYP102A2 (protein)
chain: TIKEMPQPKTFGELKNLPLLNTDKPVQALMKIADELGEIFKFEAPGRVTRYLSSQRLIKEACDESRFDKNLSQALKFVRDFAGDGLATSWTHEKNWKKAHNILLPSFSQQAMKGYHAMMVDIAVQLVQKWERLNADEHIEVPEDMTRLTLDTIGLCGFNYRFNSYYRETPHPFINSMVRALDEAMHQMQRLDVQDKLMVRTKRQFRYDIQTMFSLVDSIIAERRANGDQDEKDLLARMLNVEDPETGEKLDDENIRFQIITFLIAGHETTSGLLSFALYFLVKNPHVLQKAAEEAARVLVDPVPSYKQVKQLKYVGMVLNEALRLWPTAPAFSLYAKEDTVLGGEYPLEKGDELMVLIPQLHRDKTIWGDDVEEFRPERFENPSAIPQHAFKPFGNGQRACIGQQFALHEATLVLGMMLKHFDFEDHTNYELDIKETLTLKPEGFVVKAKSKKIPLGGIPSPST
modifications: Chimeric Cytochrome P450 heme group sequence from Bacillus megaterium and Bacillus subtilis
notes: CYP102A1 heme domain with residues 165-256 from CYP102A2
Turning to B3, in data set [6], the “peroxygenase activity on allyloxy-benzene” value is on record as “highest rates”. Also, the Peroxidase activity in data set [2] is given as 16.1 nmol product/nmol P450/min. Moreover, the “peroxidase activity relative to parents” value in data set [2] (ABTS) was “significantly higher peroxidase activities”. Also, the “substrate activity profile relative to parents” value in data set [3] was “broadest substrate specificity; also recorded: new activity; also recorded: active on all three substrates; also recorded: gained novel activity”. Further, the Tm in data set [4] was found to be 48 °C.

B4: A3: third parent P450 of the seven-crossover library (protein, listed as Bacillus subtilis)
chain: KQASAIPQPKTYGPLKNLPHLEKEQLSQSLWRIADELGPIFRFDFPGVSSVFVSGHNLVAEVCDEKRFDKNLGKGLQKVREFGGDGLATSWTHEPNWQKAHRILLPSFSQKAMKGYHSMMLDIATQLIQKWSRLNPNEEIDVADDMTRLTLDTIGLCGFNYRFNSFYRDSQHPFITSMLRALKEAMNQSKRLGLQDKMMVKTKLQFQKDIEVMNSLVDRMIAERKANPDENIKDLLSLMLYAKDPVTGETLDDENIRYQIITFLIAGHETTSGLLSFAIYCLLTHPEKLKKAQEEADRVLTDDTPEYKQIQQLKYIRMVLNETLRLYPTAPAFSLYAKEDTVLGGEYPISKGQPVTVLIPKLHRDQNAWGPDAEDFRPERFEDPSSIPHHAYKPFGNGQRACIGMQFALQEATMVLGLVLKHFELINHTGYELKIKEALTIKPDDFKITVKPRKTAAINVQRKEQA
As for B4, the “activity on test substrates incl. novel substrates (diphenyl ether, allyloxy-benzene)” value in data set [5] is reported as “no activity towards any of the substrates tested”.
